Data set [1] addresses T1, RC3H1-N2 (Roquin-1, RING, ROQ and CCCH zinc finger domains) (Homo sapiens, UniProt Q5TC82 Q5TC82:2-452).
T1 sequence: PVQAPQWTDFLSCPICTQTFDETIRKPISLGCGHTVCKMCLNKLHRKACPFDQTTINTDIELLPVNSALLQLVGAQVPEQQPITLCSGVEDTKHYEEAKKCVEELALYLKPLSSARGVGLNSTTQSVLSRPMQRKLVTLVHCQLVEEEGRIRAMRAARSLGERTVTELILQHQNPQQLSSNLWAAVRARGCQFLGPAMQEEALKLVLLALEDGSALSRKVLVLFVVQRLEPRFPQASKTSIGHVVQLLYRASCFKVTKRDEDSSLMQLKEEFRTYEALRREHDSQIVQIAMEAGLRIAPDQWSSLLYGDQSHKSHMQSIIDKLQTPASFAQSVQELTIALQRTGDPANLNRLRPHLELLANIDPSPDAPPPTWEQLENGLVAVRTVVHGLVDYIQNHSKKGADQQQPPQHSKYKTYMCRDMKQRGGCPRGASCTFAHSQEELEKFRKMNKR
As to the kind of experiment: EMSA; same buffer; similar to RC3H1-N1. To be noted: tags: N-terminal His7 cleaved with TEV protease, E. coli Rosetta 2 (DE3), pQLinkH; label: 5'-32P; hairpin. The procedure: (§1) The EMSA was performed as described before⁴⁹ with the following modifications: RNA was prepared by 5′ end-labeling of commercially synthesized RNA oligonucleotides with [γ-³²P]-ATP using T4 polynucleotide kinase (NEB). Labeled RNA was gel purified and eluted and adjusted with H₂O to 1 pmol/μl. 50 fmol of labelled RNA was used per 20 μl reaction. Prior to binding reactions, a master mix containing labelled RNA, lx binding buffer (20 mM Tris-HCl (pH 7.5), 50 mM KCl, 5 mM MgCl₂, 20 μM ZnSO₄, 10% glycerol), 2 mM DTT, 0.05 mg/ml BSA, and 5 μg/ml heparin was heated at 90° C. for 1 min and gradually cooled down to room temperature. In parallel, a dilution series of 10× protein stocks was prepared in 1× protein dilution buffer (1× binding buffer, 5 μg/ml heparin). For each binding reaction, 2 μl of the 10× protein stock was added to 18 μl of the mastermix at room temperature for 2 h. After addition of 4 μl 6× loading buffer (30% glycerol, bromphenol blue, xylene cyanol), RNP complexes were resolved by nondenaturing PAGE (6% polyacrylamide, 0.5×TBE, 5% glycerol) in ice-cold 0.5×TBE buffer containing 20 μM ZnSO₄ at 100 V for 40 min. The protein-bound RNA and the free RNA were quantified using a phosphorimager.
For orientation: A gel shift assay detects complexes by their altered migration in electrophoresis.

The target of data set [2] is T2, RC3H1-N1 (Roquin-1, RING and ROQ domains) (Homo sapiens, UniProt Q5TC82 Q5TC82:2-399).
T2 sequence: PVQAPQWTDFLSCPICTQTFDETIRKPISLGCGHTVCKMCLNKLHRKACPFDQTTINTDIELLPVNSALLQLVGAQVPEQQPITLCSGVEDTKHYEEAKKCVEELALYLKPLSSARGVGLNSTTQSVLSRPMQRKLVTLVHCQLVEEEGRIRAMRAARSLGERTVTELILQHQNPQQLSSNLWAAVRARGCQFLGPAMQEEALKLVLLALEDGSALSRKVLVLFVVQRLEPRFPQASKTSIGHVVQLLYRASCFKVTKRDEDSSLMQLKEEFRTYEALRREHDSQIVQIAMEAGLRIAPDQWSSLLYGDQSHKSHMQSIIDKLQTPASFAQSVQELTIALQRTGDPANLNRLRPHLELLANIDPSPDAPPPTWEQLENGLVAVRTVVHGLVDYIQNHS
As to the kind of experiment: EMSA; 20 mM Tris-HCl pH 7.5, 50 mM KCl, 5 mM MgCl2, 20 uM ZnSO4, 5 ug/ml heparin, room temperature; binding independent of CCCH zinc finger. To be noted: tags: N-terminal His7 cleaved with TEV protease, E. coli Rosetta 2 (DE3), pQLinkH; label: 5'-32P; hairpin. The procedure:
as §1

The target in data set [3] is T1, RC3H1-N2 (Roquin-1, RING, ROQ and CCCH …). As to the kind of experiment: EMSA; same buffer; higher affinity than RC3H1-N1. To be noted: tags: N-terminal His7 cleaved with TEV protease, E. coli Rosetta 2 (DE3), pQLinkH; label: 5'-32P; hairpin. The procedure:
as §1

Data set [4] has the same target. Nature of the data set: EMSA; same buffer; higher affinity than for the 23 nt hairpin; reduced by antisense LNA SEQ 6 (FIG. 5c). To be noted: tags: N-terminal His7 cleaved with TEV protease, E. coli Rosetta 2 (DE3), pQLinkH; label: 5'-32P. The procedure:
as §1

For AUUUCUGUGAAAU (ssRNA) [ICOS CDE-like stem-loop 13 nt], the binding result in data set [1] and in data set [2] was “binds” each time.
Consider ACCCUUACAUUAUGUAUGAGGGA (ssRNA) [A20 23 nt hairpin], for which, in data set [3], the binding result is on record as “binds”.
As for AUAUAUAAUAUACCCUUACAUUAUGUAUGAGGGAUUU (ssRNA) [A20 37 nt], in data set [4], the binding result was “binds”.

The values above are taken from US20170298359, “OLIGONUCLEOTIDE TARGETED TO THE A20-THREE PRIME UNTRANSLATED REGION” (Max-Delbrück-Centrum für Molekulare Medizin in …, published 2017).
